Target: CTD1, C-terminal domain of major ampullate spidroin 1 of Latrodectus hesperus (Latrodectus hesperus)
Test: non-reducing SDS-PAGE; non-reducing SDS-PAGE of fractions of the Ni-IMAC purification of CTD1; disulphide-linked dimer

stoichiometry N: 2
Substance: CTD1, C-terminal domain of major ampullate spidroin 1 of Latrodectus hesperus (domain or fragment)

Source: paper PMC7327021
